Blank lines part the entries; values can stand above or below the substance they belong to.
Assays:
[1] = molecular target: HSA 82-aa RNC with Cys34, Cys53, and Cys62 mutated to Ala (human); test: high-speed atomic force microscopy
[2] = molecular target: protein disulfide isomerase (PDI), wild type (human) (UniProt P07237); test: high-speed atomic force microscopy

Sequence of protein disulfide isomerase (PDI), wild type (P07237 18-508): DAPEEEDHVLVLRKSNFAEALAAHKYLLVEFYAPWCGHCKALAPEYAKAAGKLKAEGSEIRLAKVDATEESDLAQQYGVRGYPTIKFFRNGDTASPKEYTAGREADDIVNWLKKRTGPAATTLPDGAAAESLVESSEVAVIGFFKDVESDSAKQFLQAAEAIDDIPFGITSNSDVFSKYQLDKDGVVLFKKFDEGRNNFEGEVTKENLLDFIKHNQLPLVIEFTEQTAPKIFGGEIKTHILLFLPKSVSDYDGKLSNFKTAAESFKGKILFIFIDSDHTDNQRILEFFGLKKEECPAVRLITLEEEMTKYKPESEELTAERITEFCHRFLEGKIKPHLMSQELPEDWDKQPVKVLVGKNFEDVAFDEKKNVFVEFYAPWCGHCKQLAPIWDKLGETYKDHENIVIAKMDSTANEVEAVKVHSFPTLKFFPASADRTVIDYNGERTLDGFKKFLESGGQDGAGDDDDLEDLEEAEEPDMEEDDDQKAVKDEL
Sequence of protein disulfide isomerase (PDI), wild type, P07237 18-508 (enzyme; other documents disagree on this pair) (P07237 18-508): as above

RNC binding time (8/59 molecules) [1]: 60 s
Substance: ER-resident protein 46 (ERp46), wild type (from UniProt Q8NBS9 33-432) (enzyme)

RNC binding time (PDI homodimer, 17/19 molecules) [1]: > 60 s | RNC binding time (PDI monomer, 52/55 molecules) [1]: < 10 s
Substance: protein disulfide isomerase (PDI), wild type (from UniProt P07237 18-508) (enzyme)

stoichiometry N [2]: 2
Substance: protein disulfide isomerase (PDI), wild type, P07237 18-508 (enzyme; other documents disagree on this pair)

Reference: doi:10.1101/2021.01.04.425348
